Measured values taken from paper PMC3035870 (Molecular microbiology, 2009).
Like-named read-outs stand apart in the source and are kept apart here.

B1: Bacillus subtilis τ A550V mutant (natural protein, B. subtilis (strain 168), UniProt P09122 1-563, looked up)
chain: MSYQALYRVFRPQRFEDVVGQEHITKTLQNALLQKKFSHAYLFSGPRGTGKTSAAKIFAKAVNCEHAPVDEPCNECAACKGITNGSISDVIEIDAASNNGVDEIRDIRDKVKFAPSAVTYKVYIIDEVHMLSIGAFNALLKTLEEPPEHCIFILATTEPHKIPLTIISRCQRFDFKRITSQAIVGRMNKIVDAEQLQVEEGSLEIIASAADGGMRDALSLLDQAISFSGDILKVEDALLITGAVSQLYIGKLAKSLHDKNVSDALETLNELLQQGKDPAKLIEDMIFYFRDMLLYKTAPGLEGVLEKVKVDETFRELSEQIPAQALYEMIDILNKSHQEMKWTNHPRIFFEVAVVKICQTSHQSAADLPEVDMLMKKIQQLEQEVERLKTTGIKAAAESPKKEAPRVPKGGKSNYKAPVGRIHEILKEATRPDLDLLRNSWGKLLAHLKQQNKVSHAALLNDSEPVAAGSAAFVLKFKYEIHCKMVAEDNNGVRTNLEQILESMLGKRMDLIGVPEAQWGKIREEFLEDHQQENEGSNEPAEEDPLIAEVKKLVGADLIEIKD
B2: Δτ18, B. subtilis τ lacking the last 18 C-terminal residues (domain or fragment, B. subtilis (strain 168), UniProt P09122 1-545, looked up)
chain: MSYQALYRVFRPQRFEDVVGQEHITKTLQNALLQKKFSHAYLFSGPRGTGKTSAAKIFAKAVNCEHAPVDEPCNECAACKGITNGSISDVIEIDAASNNGVDEIRDIRDKVKFAPSAVTYKVYIIDEVHMLSIGAFNALLKTLEEPPEHCIFILATTEPHKIPLTIISRCQRFDFKRITSQAIVGRMNKIVDAEQLQVEEGSLEIIASAADGGMRDALSLLDQAISFSGDILKVEDALLITGAVSQLYIGKLAKSLHDKNVSDALETLNELLQQGKDPAKLIEDMIFYFRDMLLYKTAPGLEGVLEKVKVDETFRELSEQIPAQALYEMIDILNKSHQEMKWTNHPRIFFEVAVVKICQTSHQSAADLPEVDMLMKKIQQLEQEVERLKTTGIKAAAESPKKEAPRVPKGGKSNYKAPVGRIHEILKEATRPDLDLLRNSWGKLLAHLKQQNKVSHAALLNDSEPVAAGSAAFVLKFKYEIHCKMVAEDNNGVRTNLEQILESMLGKRMDLIGVPEAQWGKIREEFLEDHQQENEGSNEPAEEDP

Tests used:
Test in all cases: SEC
SEC [1] = biological target: the molecule itself
[2] = biological target: B1
[3] = biological target: B2
SEC [4] = biological target: the molecule itself; remark: listed apart in the source

Row | binding result [2] | binding result [3] | Binder | binding result (SEC [1]) | binding result (SEC [4])
1 | binds | binds | Geobacillus stearothermophilus replicative helicase DnaB (enzyme, G. stearothermophilus (strain NCA1503), UniProt Q9X4C9 1-454, looked up) MSELFSERIPPQSIEAEQAVLGAVFLDPAALVPASEILIPEDFYRAAHQKIFHAMLRVADRGEPVDLVTVTAELAASEQLEEIGGVSYLSELADAVPTAANVEYYARIVEEKSVLRRLIRTATSIAQDGYTREDEIDVLLDEADRKIMEVSQRKHSGAFKNIKDILVQTYDNIEMLHNRDGEITGIPTGFTELDRMTSGFQRSDLIIVAARPSVGKTAFALNIAQNVATKTNENVAIFSLEMSAQQLVMRMLCAEGNINAQNLRTGKLTPEDWGKLTMAMGSLSNAGIYIDDTPSIRVSDIRAKCRRLKQESGLGMIVIDYLQLIQGSGRSKENRQQEVSEISRSLKALARELEVPVIALSQLSRSVEQRQDKRPMMSDIRESGSIEQDADIVAFLYRDDYYNKDSENKNIIEIIIAKQRNGPVGTVQLAFIKEYNKFVNLERRFDEAQIPPGA | binds | –
2 | – | – | Bacillus subtilis τ subunit of the clamp-loader (DnaX) (natural protein, B. subtilis (strain 168), UniProt P09122 1-563, looked up) MSYQALYRVFRPQRFEDVVGQEHITKTLQNALLQKKFSHAYLFSGPRGTGKTSAAKIFAKAVNCEHAPVDEPCNECAACKGITNGSISDVIEIDAASNNGVDEIRDIRDKVKFAPSAVTYKVYIIDEVHMLSIGAFNALLKTLEEPPEHCIFILATTEPHKIPLTIISRCQRFDFKRITSQAIVGRMNKIVDAEQLQVEEGSLEIIASAADGGMRDALSLLDQAISFSGDILKVEDALLITGAVSQLYIGKLAKSLHDKNVSDALETLNELLQQGKDPAKLIEDMIFYFRDMLLYKTAPGLEGVLEKVKVDETFRELSEQIPAQALYEMIDILNKSHQEMKWTNHPRIFFEVAVVKICQTSHQSAADLPEVDMLMKKIQQLEQEVERLKTTGIKAAAESPKKEAPRVPKGGKSNYKAPVGRIHEILKEATRPDLDLLRNSWGKLLAHLKQQNKVSHAALLNDSEPVAAGSAAFVLKFKYEIHCKMVAEDNNGVRTNLEQILESMLGKRMDLIGVPEAQWGKIREEFLEDHQQENEGSNEPAEEDPLIAEAKKLVGADLIEIKD | binds | –
3 | – | – | B1 | – | binds
4 | – | – | B2 | binds | –
